Where a chain is given by its changes, count along the chain named.

The values that follow come from patent US20210238253A1 (GUANGDONG ZHAOTAI INVIVO BIOMEDICINE, published 2021).

T1: hCD19-his (human CD19 recombinant protein, Pro20-Lys291, His tag at C-terminus) (human, UniProt P15391 20-291)
T1 construct: range 20-291; also called human CD19-His
T1 sequence (looked up): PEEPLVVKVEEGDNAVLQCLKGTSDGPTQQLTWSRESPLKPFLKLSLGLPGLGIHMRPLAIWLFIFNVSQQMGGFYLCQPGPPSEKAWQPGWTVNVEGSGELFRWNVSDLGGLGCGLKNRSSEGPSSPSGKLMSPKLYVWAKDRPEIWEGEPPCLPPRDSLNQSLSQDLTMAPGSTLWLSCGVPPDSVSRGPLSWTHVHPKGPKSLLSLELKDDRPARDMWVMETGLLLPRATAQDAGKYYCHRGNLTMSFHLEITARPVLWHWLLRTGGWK

T2: hVISTA-his (human, UniProt Q9H7M9 33-194)
T2 construct: Coated antigen of the specificity ELISA
T2 sequence (looked up): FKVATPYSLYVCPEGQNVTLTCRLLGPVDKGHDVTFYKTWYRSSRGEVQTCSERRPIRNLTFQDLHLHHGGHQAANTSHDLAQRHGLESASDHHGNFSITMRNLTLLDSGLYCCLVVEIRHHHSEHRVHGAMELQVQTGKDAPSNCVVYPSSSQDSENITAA

T3: hLAG3 (human, UniProt P18627 23-450, limits assumed)
T3 construct: Coated antigen of the specificity ELISA
T3 sequence (looked up): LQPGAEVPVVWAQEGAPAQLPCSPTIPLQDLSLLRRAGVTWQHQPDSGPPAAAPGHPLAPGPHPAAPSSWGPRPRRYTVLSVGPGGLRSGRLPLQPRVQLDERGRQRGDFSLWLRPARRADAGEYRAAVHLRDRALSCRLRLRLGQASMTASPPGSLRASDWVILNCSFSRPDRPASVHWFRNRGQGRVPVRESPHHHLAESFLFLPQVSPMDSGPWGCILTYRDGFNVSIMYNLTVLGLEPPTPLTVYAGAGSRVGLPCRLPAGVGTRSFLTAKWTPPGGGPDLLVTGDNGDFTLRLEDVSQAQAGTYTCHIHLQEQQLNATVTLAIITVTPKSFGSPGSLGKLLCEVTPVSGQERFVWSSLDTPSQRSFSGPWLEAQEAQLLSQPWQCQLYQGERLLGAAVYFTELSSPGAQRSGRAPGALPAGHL

T4: CD19 expressed by Nalm6 cells (UniProt P15391 20-556, limits assumed)
T4 construct: whole, on cells; Endogenous CD19 on tumor cell lines; also called Nalm6/GL; CD19 antigen on RAJI-GL and NALM6-GL tumor cells
T4 sequence (looked up): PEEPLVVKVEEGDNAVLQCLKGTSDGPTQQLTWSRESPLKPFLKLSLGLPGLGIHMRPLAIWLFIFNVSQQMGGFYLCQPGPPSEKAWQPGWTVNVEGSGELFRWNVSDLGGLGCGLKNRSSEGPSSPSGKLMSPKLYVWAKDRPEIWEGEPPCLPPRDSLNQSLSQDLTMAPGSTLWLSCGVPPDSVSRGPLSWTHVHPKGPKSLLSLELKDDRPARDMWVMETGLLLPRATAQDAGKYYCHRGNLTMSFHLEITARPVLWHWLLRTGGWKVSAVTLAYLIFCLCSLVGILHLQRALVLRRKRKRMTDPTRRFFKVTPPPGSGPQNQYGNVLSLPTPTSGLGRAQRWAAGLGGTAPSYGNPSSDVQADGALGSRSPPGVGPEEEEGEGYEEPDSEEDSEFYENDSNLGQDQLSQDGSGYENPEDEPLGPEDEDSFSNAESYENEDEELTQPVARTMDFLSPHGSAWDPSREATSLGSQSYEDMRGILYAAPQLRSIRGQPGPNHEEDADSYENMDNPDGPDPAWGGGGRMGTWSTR

T5: CD19 expressed by Nalm6 cells (UniProt P15391 20-556)
T5 chain: T4 sequence (looked up)

B1: 52F9 (hybridoma antibody) (antibody, V domains shown)
VH: QVQLVESGGGVVQAGRSLRLSCAASGFTFSNYGIHWVRQAPGKGLEWVGVIWHDGSIKNYADFVKGRFTISRDNSEDTLYLQMNSLRAEDTAVYYCAREQGNYYGWGSYKAFDIWGQGTMVTVSS
VL: DIQLTQSPSFLSVFVGDRVTITCRASQGISNYLAWYQQKPGKAPELLLYATSTLQSGVPSRLSGSGSGTEFTLTLSSLQPEDFATYYCQQVYSFPYTFGQGTKLEIK
notes: hybridoma mAb from H2L2 mouse (human variable, rat constant regions)
B2: 15F2 (hybridoma antibody) (antibody, V domains shown)
VH: QVQLVESGGGVVQPGRSLRLSCAASGFTFSRHGMHWVRQAPGKGLEWVAVIWYDGSNKYYVDSVKGRFTISRDNSKNTLDLQMNSLRAEDTAVYYCARRSITWDGAFDIWGQGTMVTVSS
VL: DIQMTQSPSTLSASVGDRVTVTCRASQSIRSWLAWYQQKPGKAPKLLIYKASSLESGVPSRFSGSGSGTEFTLTISSLQPDDFATYYCQQYNSAYTFGQGTKLEIK
notes: as for B1
B3: 17B6 (hybridoma antibody) (antibody, V domains shown)
VH: QVQLVESGGGVVQPGRSLRLSCEASGFTFSRHGMHWVRQAPGKGLEWVAVIFYDGSQNYYADSVRGRFTISRDNSKNTLSLQMDSLRAEDTAVYYCARRSITWNGGFDIWGQGTMVTVSP
VL: B2 VL with V21I, R30S, T74A, S93R, A94F
notes: as for B1
B4: 27F11 (hybridoma antibody) (antibody, V domains shown)
VH: B2 VH with W52Y, D104N
VL: B2 VL with V21I, T22S, R30S
notes: as for B1

T7 sequence (P25942 21-193 limits assumed): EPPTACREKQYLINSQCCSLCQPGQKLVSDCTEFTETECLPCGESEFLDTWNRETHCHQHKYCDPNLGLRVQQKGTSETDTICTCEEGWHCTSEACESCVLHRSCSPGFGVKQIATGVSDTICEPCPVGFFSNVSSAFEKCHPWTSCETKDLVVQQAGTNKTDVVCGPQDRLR
T6 sequence (Q9NZQ7 19-238 limits assumed): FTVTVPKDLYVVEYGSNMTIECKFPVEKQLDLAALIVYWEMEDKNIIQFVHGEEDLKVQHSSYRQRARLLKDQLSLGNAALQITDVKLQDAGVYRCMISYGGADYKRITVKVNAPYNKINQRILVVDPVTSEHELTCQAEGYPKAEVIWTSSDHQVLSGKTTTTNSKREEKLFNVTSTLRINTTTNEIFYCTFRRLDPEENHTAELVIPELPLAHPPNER

One assay addresses T1, hCD19-his (human CD19 recombinant …). As to the kind of experiment: ELISA, coated hCD19-His. Here is the method: The antibodies were screened by ELISA according to Example 2. Briefly, […] of hCD19-His (ACRO) were spread and incubated. The purified antibodies were serially diluted to bind the incubated antigen. The binding signal of each antibody could be detected with HRP-labeled goat anti-rat Fc antibody.
Graphpad Prism software was used to calculate the fitting data.
For the molecule B1, the concentration for a half-maximal effect (EC50) was 0.0592 µg/mL.
Still for that read-out and setting: the value for B2 was 0.0287 µg/mL; that for B3 was 0.176 µg/mL; that for B4 was 0.0672 µg/mL.

In the next assay the target is T2, hVISTA-his. Briefly: ELISA, coated antigen 0.5 µg/ml. Here is the method:
(§1) According to the method described in Example 4, 0.5 μg/ml of hCD19-His, hVISTA-his, hPD-L1, hCD40, h41BB and hLAG3 were spread and incubated respectively, and 2μg/ml of purified antibodies were added to bind the incubated antigen. The binding signal of each antibody could be detected with HRP-labeled goat anti-rat Fc antibody.
For the molecule B1, the binding result is on record as “no binding (tested: 2 µg/ml)”.
Same read-out and setting: next, B2: “no binding (tested: 2 µg/ml)”.
On the same count and under the same terms, the value for B3 was “no binding (tested: 2 µg/ml)”; that for B4 was “no binding (tested: 2 µg/ml)”.

The next assay concerns the target T6, hPD-L1 (human, UniProt Q9NZQ7 19-238, limits assumed).
T6 construct: Coated antigen of the specificity ELISA
Briefly: ELISA, coated antigen 0.5 µg/ml. On the procedure:
as §1
Consider B1, for which the binding result was “no binding (tested: 2 µg/ml)”.
On the same count and under the same terms, next, B2: “no binding (tested: 2 µg/ml)”; B3: “no binding (tested: 2 µg/ml)”; B4: “no binding (tested: 2 µg/ml)”.

The next assay has as its target T7, hCD40 (human, UniProt P25942 21-193).
T7 construct: Coated antigen of the specificity ELISA
Briefly: ELISA, coated antigen 0.5 µg/ml. On the procedure: as §1
As for B1, the binding result is recorded as “no binding (tested: 2 µg/ml)”.
The same measure, in the same setting: the value for B2 was “no binding (tested: 2 µg/ml)”; that for B3 was “no binding (tested: 2 µg/ml)”; that for B4 was “no binding (tested: 2 µg/ml)”.

A further assay concerns the target T8, h41BB (human, UniProt Q07011 24-186).
T8 construct: Coated antigen of the specificity ELISA
Briefly: ELISA, coated antigen 0.5 µg/ml. On the procedure: as §1
In the case of B1, the binding result is “no binding (tested: 2 µg/ml)”.
In the case of B2, the binding result was “no binding (tested: 2 µg/ml)”.
Still for that read-out and setting: next, B3: “no binding (tested: 2 µg/ml)”; B4: “no binding (tested: 2 µg/ml)”.

The next assay deals with T3, hLAG3. As to the kind of experiment: ELISA, coated antigen 0.5 µg/ml. On the procedure:
as §1
B1: the binding result is given as “no binding (tested: 2 µg/ml)”.
Same read-out and setting: next, B2: “no binding (tested: 2 µg/ml)”.
With B3, the binding result was “no binding (tested: 2 µg/ml)”.
As to B4, the binding result was “no binding (tested: 2 µg/ml)”.

A further assay deals with T4, CD19 expressed by Nalm6 cells. As to the kind of experiment: flow cytometry on Nalm6 cells. On the procedure: The CD19-expressing tumor cells Nalm6 in logarithmic growth phase were collected and resuspended in PBS at a cell density of 10⁵/well, 100 μl/well. The diluted CD19 antibodies were added into the well and incubated at 4° C. for 1 hour. The cells were washed three times with flow cytometry wash buffer. Anti-rat IgG-Alexa Fluor 647 (Abcam, Cat #ab150163) was added and incubated at 4° C. for 1 hour. The cells were washed three times with flow cytometry wash buffer. The samples were analyzed by flow cytometry. The results are shown in FIG. 3 and Table 4, as follows: […]
B1: the “Maximum mean fluorescence intensity (30 µg/ml)” value amounted to 5160.
On to B2, for which the “Maximum mean fluorescence intensity (30 µg/ml)” value is 21700.
Same read-out and setting: next, B3: 25500; B4: 30000.

The next assay deals with T5, CD19 expressed by Nalm6 cells. Briefly: flow cytometry.
B1 showed an EC50 of 1.87 µg/mL.
With B2, the concentration for a half-maximal effect (EC50) worked out at 24.6 µg/mL.
Same read-out and setting: the value for B3 was 36.9 µg/mL.
B4 came in with a concentration giving a half-maximal response (EC50) of 57.3 µg/mL.
